Laboratory results reported in patent US20040138156A1, “Therapeutic regulation of deoxyribonuclease-1-like-3 activity” (priority 2002, published 2004).
“Also recorded” adds a separate entry of the source. Read-outs that look alike come from different tables or passages of the source.

Columns and labels:
free DNA = test: Radial diffusion assay (RDA) of nuclease activity against free DNA in conditioned media; assay type: biochemical; details: for RDA nuclease activity of conditioned media (in words): media conditioned by transfected HeLa cells
Procedure: (§1) Transfection Reagents and Resistance Assays. Lipofection of respective pcDNA3.1-D1 or -D3 ([…] purified with Promega Wizard Plus DNA system) was performed independently into 1-2 million HeLa cells, which produce a low background of secreted nuclease activity, when grown in DMEM with 10% FCS (LifeTech) in 6 well culture plates (Becton-Dickinson). […] Media of the transfected cells were conditioned for 36-48 hours and served as source of the respective enzymes. Nuclease activity in conditioned supernatant was measured by RDAs, zymograms and by testing activity against supercoiled pBluescript (Stratagene).
Nuclease Assays. Nuclease activity against “naked” or free DNA in CM was quantified by densitometry of RDAs. For assays of media by murine cells, RDAs were performed using conditioned media, after 36 hour incubation of equal numbers of target cell population. Each conditioned media was sampled in triplicate. RDAs for all four mice were performed on a single dish. For RDAs, 2-5 ul of conditioned supernatant was dotted on 100 mm dishes containing 2% agarose, 250 ug/ml DNA, 0.001% EtBr, 0.5% filtered milk, 10 mM Ca^+2/MgCl2; and 12.5 ug/ml kanamycin. Multiple observations were generated for every sample obtained. After 24 hours of 37° incubation, plates are photographed under UV transillumination; and scanned photos were analyzed with NIH image. For RDAs, the activity was quantified as the product of mean density and area (traced on image) of zones of clearing. For observations of serum/urine, 2-5 ul of serum were dotted on agarose plates.
(§2) Zymograms are in-gel renaturation assays performed by SDS-PAGE through a gel impregnated with 200 µg/ml DNA and ethidium bromide, eluting away SDS with repeated washes in 25 mM Tris-HCl pH 7.5, then incubating for 12-16 hours at 37° C. in 25 mM Tris-HCl pH 7.5 with 10 mM Ca^+2/Mg^+2 buffer. Activity is measured as dark “bands” of DNA digestion (Rosenthal et al., (1977) Anal. Biochem. 80, 76-90) and quantified using scanned images using NIH Image. Photographed RDA results were scanned 600 dpi Tiff images, and activity was measured as pixel area times density of traced zones of clearing (n=3 for each zone). Student's T-test was used to compare paired results. Nuclease activity ratios were obtained by comparing intra-plate results.

HeLa cells = test: BT assay: liposomal N1-eGFP transfection of HeLa cells in DNASE-conditioned media, GFP immunoblot; assay type: cell-based; details: for BT activity / GFP expression or transfection efficiency in cells exposed to undiluted conditioned media: FuGENE-6, anti-GFP immunoblot
Procedure: In the main assay, an eukaryotic marker such as green fluorescent protein (GFP) expression plasmid complexed with a lipid reagent is transfected into HeLa cells incubated in control media, D1L3-conditioned media, or D1-conditioned media (FIG. 4). The assay is not limited to the use of GFP as a marker, but could use any of many expressed biomarkers encoded by nucleotides that can be assayed either immunochemistry, fluorescent detection, or enzymatic detectection, and these include but are not circumscribed to luciferase, chloramphenicol acetyl-transferase, antibiotic or chemical resistance genes, Beta-galactosidase, FLAG-, myc-hemaglutinnin-, or other epitope tagged molecules, as well as other markers of gene or nucleotide transduction. The endpoint of the assay is the detection of a synthesized protein, but could easily have been the detection of a transcribed gene product, since the assay ultimately measures the ability of D1L3 added the media/milieu overlaying the cells to block the ultimate association of an expressible plasmid with the transcriptional machinery.
as §1
To test for the ability of the nucleases to block transfection, the media in individual wells of naive HeLa cells were replaced with conditioned media, and cells transfected with […] of N1-eGFP plasmid (Clontech) using various transfection reagents (FIG. 11) and their respective protocols. GFP expression by immunoblot directly correlated with transfection efficiency in present experiments. Thus, transfection efficiency was compared by densitometric analysis of GFP immunoblots.
GFP expression was also examined by fluorescent microscopy using a FITC filter. For microscopy, cells were fixed for 5 minutes in 4% paraformaldehyde dissolved into 1% PBS.
Antibody Reagents and Immunoblotting. After 24-36 hours, cells transfected with N1-eGFP were lysed in SDS-buffer and immunoblotted for expression with anti-GFP at 1:5000 dilution (Clontech). To confirm nearly equal protein loading per lane, anti-β-actin monoclonal antibody at 1:7,000 dilution (Sigma) were prepared. For immunoblots, […] protein was eletrophoretically separated by 12% SDS-PAGE gel, followed by electrotransfer to Immobilon-P membranes (Millipore) for expression studies. Immunoblotting was performed using ECL detection (Amersham).
Transfection efficiency was compared, wherever possible, by pixel densitometry of the scanned images using Scion Image 4.02 software.

DNA = test: DNA-SDS zymogram of nuclease activity; assay type: biochemical
Procedure: as §2
Prokaryotic Expression and GST Purification. Human D1L3-GST expression was performed by growing transformed BL21 Cells (Stratagene) at log phase were induced in 50 mg/ml IPTG for 5-7 hours at 32°. Bacterial pellets were lysed in 1×SDS-PAGE buffer and loaded on SDS-12% PAGE.

| Molecule | RDA nuclease activity of conditioned media (in words) (free DNA) | BT activity / GFP expression or transfection efficiency in cells exposed to undiluted conditioned media (HeLa cells) | nuclease activity by zymogram (in words) (DNA) | further results |
| --- | --- | --- | --- | --- |
| D3DCT: Murine D1L3 truncated by a stop codon at Ser-289, lacking the basic C-terminus (289-310) (protein) LRLCSFNVRSFGASKKENHEAMDIIVKIIKRCDLILLMEIKDSSNNICPMLMEKLNGNSRRSTTYNYVISSRLGRNTYKEQYAFVYKEKLVSVKTKYHYHDYQDGDTDVFSREPFVVWFHSPFTAVKDFVIVPLHTTPETSVKEIDELVDVYTDVRSQWKTENFIFMGDFNAGCSYVPKKAWQNIRLRTDPKFVWLIGDQEDTTVKKSTSCAYDRIVLCGQEIVNSVVPRSSGVFDFQKAYDLSEEEALDVSDHFPVEFKLQS | greater RDA activity than D3 | did not differ significantly from controls; also recorded: no significant decrease | – | RDA nuclease activity of conditioned media (in words) (free DNA; listed as D3 pCT): slightly increased nuclease activity; BT activity / GFP expression or transfection efficiency in cells exposed to undiluted conditioned media (HeLa cells; listed as D3 ρCT): unaffected |
| 89I: Murine D1L3 variant of NZ and MRL strains, isoleucine for threonine at residue 89 (protein) LRLCSFNVRSFGASKKENHEAMDIIVKIIKRCDLILLMEIKDSSNNICPMLMEKLNGNSRRSTIYNYVISSRLGRNTYKEQYAFVYKEKLVSVKTKYHYHDYQDGDTDVFSREPFVVWFHSPFTAVKDFVIVPLHTTPETSVKEIDELVDVYTDVRSQWKTENFIFMGDFNAGCSYVPKKAWQNIRLRTDPKFVWLIGDQEDTTVKKSTSCAYDRIVLCGQEIVNSVVPRSSGVFDFQKAYDLSEEEALDVSDHFPVEFKLQSSRAFTNNRKSVSLKKRKKGNRS | – | saturated BT activity | – | zymogram nuclease activity relative to 89T-transfected cells (DNA; HeLa-expressed, normalized to immunoblotted D1L3 levels, n=16): 44%; decreased zymogram activity relative to protein levels (DNA; versus 89T, GST fusions and HeLa-expressed enzymes): ~50%; RDA-nuclease activity relative to the 89T enzyme (free DNA; in vitro): about half; defect in BT activity (HeLa cells; normalized to immunoblotted D3 protein levels, versus 89T, n=6): ~8 fold; GFP transfection in ten-fold diluted conditioned media (HeLa cells; ten-fold (five and ten fold) dilution of conditioned media): liposomal gene transfection is possible; also recorded: shows transfection |
| N196K-D3: Murine D1L3 with conserved asparagine 196 changed to lysine; inactive nuclease (protein) LRLCSFNVRSFGASKKENHEAMDIIVKIIKRCDLILLMEIKDSSNNICPMLMEKLNGNSRRSTTYNYVISSRLGRNTYKEQYAFVYKEKLVSVKTKYHYHDYQDGDTDVFSREPFVVWFHSPFTAVKDFVIVPLHTTPETSVKEIDELVDVYTDVRSQWKTENFIFMGDFKAGCSYVPKKAWQNIRLRTDPKFVWLIGDQEDTTVKKSTSCAYDRIVLCGQEIVNSVVPRSSGVFDFQKAYDLSEEEALDVSDHFPVEFKLQSSRAFTNNRKSVSLKKRKKGNRS | Nearly no clearing; also recorded: negligible background RDA activity; also recorded: no nuclease activity above background | did not differ significantly from controls; also recorded: incapable of providing a barrier to transfection | no nuclease activity above background | – |
| Y261 C: Human DNASE1L3 with Tyr>Cys at aa 261, HA-tagged, expressed in HeLa (protein, UniProt Q13609 21-305, looked up, variant Y261C, HA tag, Human DNASE1L3 with Tyr>Cys at aa 261, HA-tagged, expressed in HeLa) Deoxyribonuclease gamma: MRICSFNVRSFGESKQEDKNAMDVIVKVIKRCDIILVMEIKDSNNRICPILMEKLNRNSRRGITYNYVISSRLGRNTYKEQYAFLYKEKLVSVKRSYHYHDYQDGDADVFSREPFVVWFQSPHTAVKDFVIIPLHTTPETSVKEIDELVEVYTDVKHRWKAENFIFMGDFNAGCSYVPKKAWKNIRLRTDPRFVWLIGDQEDTTVKKSTNCAYDRIVLRGQEIVSSVVPKSNSVFDFQKACKLTEEEALDVSDHFPVEFKLQSSRAFTNSKKSVTLRKKTKSKRS | complete loss of function | complete loss of function | complete loss of function | nuclease activity by zymogram (in words) (DNA; listed as 261 C): no activity; RDA nuclease activity of conditioned media (in words) (free DNA; listed as 261 C): only faint, if any, activity; BT activity / GFP expression or transfection efficiency in cells exposed to undiluted conditioned media (HeLa cells; listed as 261 C): absence of barrier activity |
| N191K: Human D1L3 with N191K mutation, expressed as GST fusion in E. coli (protein) MRICSFNVRSFGESKQEDKNAMDVIVKVIKRCDIILVMEIKDSNNRICPILMEKLNRNSRRGITYNYVISSRLGRNTYKEQYAFLYKEKLVSVKRSYHYHDYQDGDADVFSREPFVVWFQSPHTAVKDFVIIPLHTTPETSVKEIDELVEVYTDVKHRWKAENFIFMGDFKAGCSYVPKKAWKNIRLRTDPRFVWLIGDQEDTTVKKSTNCAYDRIVLRGQEIVSSVVPKSNSVFDFQKAYKLTEEEALDVSDHFPVEFKLQSSRAFTNSKKSVTLRKKTKSKRS | – | – | no detectable nuclease activity | – |
